{"source": "patent US20180171024A1", "key": {"[1]": {"molecular_target": "HLA-A2 on HLA-A2+/WT1+ SET2 cells (WT1 mRNA positive; WT1 126-134 peptide not detected by mass spectrometry of eluted HLA peptides)", "experiment": "flow cytometry on SET-2 cells (WT1 mRNA +)"}, "[2]": {"molecular_target": "HLA-A2 on cells (tumor cell lines, normal primary cells, PBMCs) (human)", "experiment": "flow cytometry, renal epithelial cells 4100-2, 10 µg/ml"}, "[3]": {"molecular_target": "HLA-A2 on HLA-A2+ cells that do not express WT1 (tumor cell lines, normal primary cells)", "experiment": "flow cytometry on SKMEL-5 melanoma cells (WT1 mRNA -)"}, "[4]": {"molecular_target": "HLA-A2 on cells (tumor cell lines, normal primary cells, PBMCs) (human)", "experiment": "flow cytometry, Malme-3M melanoma cells"}, "[5]": {"molecular_target": "HLA-A2 on cells (tumor cell lines, normal primary cells, PBMCs) (human)", "experiment": "flow cytometry, 624.38 melanoma cells, 10 µg/ml"}, "[6]": {"molecular_target": "HLA-A2/WT1 126-134 complex on T2 cells (human)", "experiment": "flow cytometry, T2 cells loaded with WT1 [..], 10 µg/ml"}, "[7]": {"molecular_target": "HLA-A2 on cells (tumor cell lines, normal primary cells, PBMCs) (human)", "experiment": "flow cytometry, astrocytes 1840, 10 µg/ml"}, "[8]": {"molecular_target": "HLA-A2/WT1 126-134 complex on T2 cells (human)", "experiment": "flow cytometry, T2 cells loaded with WT1 peptide 1x10e-5M"}, "[9]": {"molecular_target": "HLA-A2/Gag on T2 cells (human)", "experiment": "flow cytometry, T2 cells loaded with GAG peptide"}, "[10]": {"molecular_target": "HLA-A2 on cells (tumor cell lines, normal primary cells, PBMCs) (human)", "experiment": "flow cytometry, Fib cells"}, "[11]": {"molecular_target": "HLA-A2 on HLA-A2+ cells that do not express WT1 (tumor cell lines, normal primary cells)", "experiment": "flow cytometry on 501A melanoma cells (WT1 mRNA -)"}, "[12]": {"molecular_target": "HLA-A2/TyrD-S22 on T2 cells (human)", "experiment": "flow cytometry, peptide-loaded T2 cells (10^-5 M), PE anti-mouse IgG"}, "[13]": {"molecular_target": "HLA-A2/TyrD-S21 on T2 cells (human)", "experiment": "flow cytometry, peptide-loaded T2 cells (10^-5 M), PE anti-mouse IgG"}, "[14]": {"molecular_target": "HLA-A2/TyrD-S23 on T2 cells (human)", "experiment": "flow cytometry, peptide-loaded T2 cells (10^-5 M), PE anti-mouse IgG"}, "[15]": {"molecular_target": "HLA-A2/TyrD-S20 on T2 cells (human)", "experiment": "flow cytometry, peptide-loaded T2 cells (10^-5 M), PE anti-mouse IgG"}, "[16]": {"molecular_target": "HLA-A2 on cells (tumor cell lines, normal primary cells, PBMCs) (human)", "experiment": "flow cytometry, 'Umbryonic cells' #HUE-1, 10 µg/ml"}, "[17]": {"molecular_target": "HLA-A2 on cells (tumor cell lines, normal primary cells, PBMCs) (human)", "experiment": "flow cytometry, CCRF-SB cells, 10 µg/ml"}, "[18]": {"molecular_target": "HLA-A2/Tyrosinase369-377 complex on cells (human)", "experiment": "flow cytometry, T2 cells loaded with TyrD [..], 10 µg/ml"}, "[19]": {"molecular_target": "HLA-A2/TyrD-S7 on T2 cells (human)", "experiment": "flow cytometry, T2 cells loaded with TyrD S7 [..], 10 µg/ml"}, "[20]": {"molecular_target": "HLA-A2/TyrD-S12 on T2 cells (human)", "experiment": "flow cytometry, T2 cells loaded with TyrD S12 [..], 10 µg/ml"}, "[21]": {"molecular_target": "HLA-A2 on cells (tumor cell lines, normal primary cells, PBMCs) (human)", "experiment": "flow cytometry, Malme-3M melanoma cells, 10 µg/ml"}, "[22]": {"molecular_target": "HLA-A2 on cells (tumor cell lines, normal primary cells, PBMCs) (human)", "experiment": "flow cytometry, renal epithelial cells #4100-2, 10 µg/ml"}, "[23]": {"molecular_target": "HLA-A2/WT1 126-134 complex on T2 cells (human)", "experiment": "flow cytometry, T2 cells loaded with WT1 1x10e-4M in DMSO"}, "[24]": {"molecular_target": "HLA-A2 on cells (tumor cell lines, normal primary cells, PBMCs) (human)", "experiment": "flow cytometry, H522 cells, 10 µg/ml"}, "[25]": {"molecular_target": "HLA-A2 on cells (tumor cell lines, normal primary cells, PBMCs) (human)", "experiment": "flow cytometry, WM-266-4 melanoma cells"}, "[26]": {"molecular_target": "HLA-A2/TyrD-S23 on T2 cells (human)", "experiment": "flow cytometry, T2 cells loaded with TyrD-S23 [..], 10 µg/ml"}, "[27]": {"molecular_target": "HLA-A2 on HLA-A2+ cells that do not express WT1 (tumor cell lines, normal primary cells)", "experiment": "flow cytometry on A498 cells (WT1 mRNA -)"}, "[28]": {"molecular_target": "HLA-A2/NFACT on T2 cells (human)", "experiment": "flow cytometry, T2 cells loaded with NFACT peptide"}, "[29]": {"molecular_target": "HLA-A2/TyrD-S9 on T2 cells (human)", "experiment": "flow cytometry, T2 cells loaded with TyrD S9 [..], 10 µg/ml"}, "[30]": {"molecular_target": "HLA-A2/WT1-S13 on T2 cells (human)", "experiment": "flow cytometry, peptide-loaded T2 cells (10^-4-10^-5 M)"}, "[31]": {"molecular_target": "HLA-A2/WT1-S22 on T2 cells (human)", "experiment": "flow cytometry, peptide-loaded T2 cells (10^-4-10^-5 M)"}, "[32]": {"molecular_target": "HLA-A2/WT1-S6 on T2 cells (human)", "experiment": "flow cytometry, peptide-loaded T2 cells (10^-4-10^-5 M)"}, "[33]": {"molecular_target": "HLA-A2/WT1-S7 on T2 cells (human)", "experiment": "flow cytometry, peptide-loaded T2 cells (10^-4-10^-5 M)"}, "[34]": {"molecular_target": "HLA-A2/WT1-S11 on T2 cells (human)", "experiment": "flow cytometry, peptide-loaded T2 cells (10^-4-10^-5 M)"}, "[35]": {"molecular_target": "HLA-A2/WT1-S16 on T2 cells (human)", "experiment": "flow cytometry, peptide-loaded T2 cells (10^-4-10^-5 M)"}, "[36]": {"molecular_target": "HLA-A2/WT1-S10 on T2 cells (human)", "experiment": "flow cytometry, peptide-loaded T2 cells (10^-4-10^-5 M)"}, "[37]": {"molecular_target": "HLA-A2/TyrD-S13 on T2 cells (human)", "experiment": "flow cytometry, T2 cells loaded with TyrD S13 [..], 10 µg/ml"}, "[38]": {"molecular_target": "HLA-A2 on cells (tumor cell lines, normal primary cells, PBMCs) (human)", "experiment": "flow cytometry, astrocytes 1800, 10 µg/ml"}}, "data": [{"substance": "BB7.2 (antibody)", "values": [{"measurement": "MFI", "setting": "[1]", "value": 890}, {"measurement": "MFI", "setting": "[2]", "value": 564}, {"measurement": "MFI", "setting": "[3]", "value": 170}, {"measurement": "MFI", "setting": "[4]", "value": 372}, {"measurement": "MFI", "setting": "[5]", "value": 311}, {"measurement": "MFI relative to background", "setting": "[6]", "value": 1420}, {"measurement": "MFI", "setting": "[7]", "value": 569}, {"measurement": "MFI", "setting": "[8]", "value": 369}, {"measurement": "MFI", "setting": "[9]", "value": 1840}, {"measurement": "GeoMean", "setting": "[10]", "value": 613}, {"measurement": "MFI", "setting": "[11]", "value": 229}, {"measurement": "MFI relative to background", "setting": "[12]", "value": 464}, {"measurement": "MFI relative to background", "setting": "[13]", "value": 654}, {"measurement": "MFI relative to background", "setting": "[14]", "value": 443}, {"measurement": "MFI relative to background", "setting": "[15]", "value": 445}, {"measurement": "MFI", "setting": "[16]", "value": 553}, {"measurement": "MFI", "setting": "[17]", "value": 902}, {"measurement": "MFI relative to background", "setting": "[18]", "value": 430}, {"measurement": "MFI relative to background", "setting": "[19]", "value": 666}, {"measurement": "MFI relative to background", "setting": "[20]", "value": 532}, {"measurement": "MFI", "setting": "[21]", "value": 540}, {"measurement": "MFI", "setting": "[22]", "value": 1620}, {"measurement": "MFI", "setting": "[23]", "value": 722}, {"measurement": "MFI", "setting": "[24]", "value": 52.7}, {"measurement": "MFI", "setting": "[25]", "value": 64}, {"measurement": "MFI relative to background", "setting": "[26]", "value": 443}, {"measurement": "MFI", "setting": "[27]", "value": 350}, {"measurement": "MFI", "setting": "[28]", "value": 2720}, {"measurement": "MFI relative to background", "setting": "[29]", "value": 768}, {"measurement": "MFI", "setting": "[30]", "value": 296}, {"measurement": "MFI", "setting": "[31]", "value": 376}, {"measurement": "MFI", "setting": "[32]", "value": 500}, {"measurement": "MFI", "setting": "[33]", "value": 592}, {"measurement": "MFI", "setting": "[34]", "value": 449}, {"measurement": "MFI", "setting": "[35]", "value": 379}, {"measurement": "MFI", "setting": "[36]", "value": 450}, {"measurement": "MFI relative to background", "setting": "[37]", "value": 749}, {"measurement": "MFI", "setting": "[38]", "value": 590}]}]}
